Data taken from PMC6910952 (Nature Communications, 2019).
No end group written: not given here.

Key:
Details in all cases: both partners purified
His6-yNpl4^113–580 M357A = molecular target: T1, His6-yNpl4^113–580 M357A (Saccharomyces cerevisiae, UniProt P33755 113-580, M357A); experiment: fluorescence polarisation; fluorescence anisotropy; 1 nM FlAsH-labeled His6-SUMO-yUfd1 peptide, His6-yNpl4^113–580 in two-fold dilution series; 25 °C; 50 mM Tris-HCl pH 8.0, 100 mM NaCl, 5 mM β-mercaptoethanol, 0.1 g/L BSA
T1 construct: also called yNpl4 M357A; source: E. coli Rosetta (DE3), purified (Ni-NTA, Resource Q); not shown: His6, N-terminal, kept
T1 sequence (looked up): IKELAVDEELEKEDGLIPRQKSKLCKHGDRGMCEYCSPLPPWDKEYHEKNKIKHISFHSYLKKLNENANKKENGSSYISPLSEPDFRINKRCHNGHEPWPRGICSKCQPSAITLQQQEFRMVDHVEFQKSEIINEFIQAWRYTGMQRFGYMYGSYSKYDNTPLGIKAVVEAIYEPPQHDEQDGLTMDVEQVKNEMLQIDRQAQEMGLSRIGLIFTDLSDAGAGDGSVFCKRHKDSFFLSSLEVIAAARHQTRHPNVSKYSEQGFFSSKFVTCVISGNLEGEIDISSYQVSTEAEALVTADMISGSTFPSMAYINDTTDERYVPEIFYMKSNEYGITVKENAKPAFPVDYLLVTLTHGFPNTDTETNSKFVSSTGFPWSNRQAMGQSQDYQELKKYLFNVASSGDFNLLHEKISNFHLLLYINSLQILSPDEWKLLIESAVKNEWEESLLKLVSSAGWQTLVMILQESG

GST-yNpl4 I575A = molecular target: T2, GST-yNpl4 I575A (Saccharomyces cerevisiae, UniProt P33755 1-580, I575A); experiment: pull-down; GST-yNpl4 (0.5 μM, wild type or mutant) on Glutathione Sepharose 4B beads, 1 h at room temperature with 0.5 μM yUfd1, 3 μM Cdc48 (0.5 μM hexamer) and 1 μg K48 chains in 100 μL 50 mM Tris-HCl pH 7.5, 100 mM NaCl, 10% glycerol, 0.1% Triton X-100; chains detected by anti-Ub immunoblot, proteins by Ponceau S
T2 construct: Npl4 of Saccharomyces cerevisiae (yNpl4), full length; source: E. coli Rosetta (DE3) (pGEX-6P1), purified (Glutathione Sepharose FF, Resource Q); not shown: GST, N-terminal, kept
T2 sequence (looked up): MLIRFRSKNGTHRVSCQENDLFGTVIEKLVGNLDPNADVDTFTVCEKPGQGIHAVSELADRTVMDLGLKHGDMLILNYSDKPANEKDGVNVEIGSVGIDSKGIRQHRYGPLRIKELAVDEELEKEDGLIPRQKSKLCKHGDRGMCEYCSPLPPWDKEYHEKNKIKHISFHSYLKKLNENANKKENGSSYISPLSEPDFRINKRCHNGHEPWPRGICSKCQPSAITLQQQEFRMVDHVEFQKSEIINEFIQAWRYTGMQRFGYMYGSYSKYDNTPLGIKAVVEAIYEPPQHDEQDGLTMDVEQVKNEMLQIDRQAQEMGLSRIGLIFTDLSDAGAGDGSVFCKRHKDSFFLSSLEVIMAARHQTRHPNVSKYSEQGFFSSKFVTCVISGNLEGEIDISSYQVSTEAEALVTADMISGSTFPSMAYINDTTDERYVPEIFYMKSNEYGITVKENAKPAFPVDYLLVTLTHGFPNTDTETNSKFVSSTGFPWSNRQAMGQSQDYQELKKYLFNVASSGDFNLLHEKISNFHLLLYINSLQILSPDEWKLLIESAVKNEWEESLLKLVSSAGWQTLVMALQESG

GST-yNpl4 A494F = molecular target: T3, GST-yNpl4 A494F (Saccharomyces cerevisiae, UniProt P33755 1-580, A494F); experiment: as above
T3 construct: Npl4 of Saccharomyces cerevisiae (yNpl4), full length; source: E. coli Rosetta (DE3) (pGEX-6P1), purified (Glutathione Sepharose FF, Resource Q); not shown: GST, N-terminal, kept
T3 sequence (looked up): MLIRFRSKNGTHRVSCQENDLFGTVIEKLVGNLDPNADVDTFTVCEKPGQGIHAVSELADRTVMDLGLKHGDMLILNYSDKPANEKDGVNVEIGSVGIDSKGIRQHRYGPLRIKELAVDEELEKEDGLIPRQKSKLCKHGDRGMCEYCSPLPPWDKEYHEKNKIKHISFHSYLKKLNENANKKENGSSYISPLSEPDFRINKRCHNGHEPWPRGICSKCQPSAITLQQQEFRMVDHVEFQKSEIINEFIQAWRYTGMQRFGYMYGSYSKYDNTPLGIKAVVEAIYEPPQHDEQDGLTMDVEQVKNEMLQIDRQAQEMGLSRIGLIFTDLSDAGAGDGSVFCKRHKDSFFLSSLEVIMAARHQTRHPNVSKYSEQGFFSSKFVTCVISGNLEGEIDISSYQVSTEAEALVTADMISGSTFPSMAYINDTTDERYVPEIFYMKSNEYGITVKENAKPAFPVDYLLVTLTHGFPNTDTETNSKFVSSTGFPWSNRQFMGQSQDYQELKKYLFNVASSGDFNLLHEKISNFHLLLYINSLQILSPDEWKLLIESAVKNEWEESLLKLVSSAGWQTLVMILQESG

B1: FlAsH-labeled His6-SUMO-yUfd1^288–305-GWCCPGCC (peptide, UniProt P53044 288-305, looked up)
chain: {His6-SUMO}-EPAKLDLPEGQLFFGFPMGWCCPGCC
modifications: cysteine pairing not given here; also: FlAsH label bound to CCPGCC motif
notes: the assay methods print 280-305; also called yUfd1-FlAsH; yUfd1 WT; source: E. coli Rosetta (DE3) (pCold-SUMO), purified (Ni-NTA, Resource Q), labeled with FlAsH-EDT2; not shown: His6, N-terminal, kept; SUMO, N-terminal, kept
Kd (His6-yNpl4^113–580 M357A): 164 nM

B2: yUfd1 (full length, untagged) (natural protein, Saccharomyces cerevisiae, UniProt P53044 1-361, looked up)
chain: MFSGFSSFGGGNGFVNMPQTFEEFFRCYPIAMMNDRIRKDDANFGGKIFLPPSALSKLSMLNIRYPMLFKLTANETGRVTHGGVLEFIAEEGRVYLPQWMMETLGIQPGSLLQISSTDVPLGQFVKLEPQSVDFLDISDPKAVLENVLRNFSTLTVDDVIEISYNGKTFKIKILEVKPESSSKSICVIETDLVTDFAPPVGYVEPDYKALKAQQDKEKKNSFGKGQVLDPSVLGQGSMSTRIDYAGIANSSRNKLSKFVGQGQNISGKAPKAEPKQDIKDMKITFDGEPAKLDLPEGQLFFGFPMVLPKEDEESAAGSKSSEQNFQGQGISLRKSNKRKTKSDHDSSKSKAPKSPEVIEID
notes: Ufd1 of Saccharomyces cerevisiae (yUfd1), full length; codon-optimized synthetic cDNA; removal of GST by HRV3C is surmised; also called untagged Ufd1; source: E. coli Rosetta (DE3) (pGEX-6P1), purified
binding result (GST-yNpl4 I575A): binds
binding result (GST-yNpl4 A494F): binds
